Results from article PMC6092398, “Revealing circadian mechanisms of integration and resilience by visualizing clock proteins working in real time” (Nature Communications, 2018).
Where a chain is given by its changes, count along the chain named.

Assays:
KaiA [1] = biological target: KaiA (UniProt Q79PF6); assay: HS-AFM single-molecule dwell time
KaiA [2] = biological target: KaiA (UniProt Q79PF6); assay: HS-AFM single-molecule dwell time; remark: listed apart in the source
KaiC-DE (mimic of pS/pT) [3] = biological target: T1, KaiC-DE (mimic of pS/pT) (S. elongatus, UniProt Q79PF4 1-519, KaiC-DE (S431 to D) | KaiC-DE (T432 to E)); assay: high-speed atomic force microscopy (HS-AFM); KaiC phospho-mimics on AP-mica (CII end up), 1 μM KaiA in solution, no ATP; dwell time of the KaiA-bound state from images at 10 fps, fitted to a first order model; 20 mM Tris-HCl pH 8.0, 5 mM MgCl2, 25-28 °C; settings: both partners purified
T1 construct: KaiC of Synechococcus elongatus with the two phosphorylation sites S431 and T432 changed to D and E; the two substitutions are read from these; source: E. coli BL21 or DH5α, pGEX-based construct, purified (glutathione-agarose, HRV3C cleavage on the column, Q Sepharose); not shown: GST, N-terminal, cleaved
T1 sequence: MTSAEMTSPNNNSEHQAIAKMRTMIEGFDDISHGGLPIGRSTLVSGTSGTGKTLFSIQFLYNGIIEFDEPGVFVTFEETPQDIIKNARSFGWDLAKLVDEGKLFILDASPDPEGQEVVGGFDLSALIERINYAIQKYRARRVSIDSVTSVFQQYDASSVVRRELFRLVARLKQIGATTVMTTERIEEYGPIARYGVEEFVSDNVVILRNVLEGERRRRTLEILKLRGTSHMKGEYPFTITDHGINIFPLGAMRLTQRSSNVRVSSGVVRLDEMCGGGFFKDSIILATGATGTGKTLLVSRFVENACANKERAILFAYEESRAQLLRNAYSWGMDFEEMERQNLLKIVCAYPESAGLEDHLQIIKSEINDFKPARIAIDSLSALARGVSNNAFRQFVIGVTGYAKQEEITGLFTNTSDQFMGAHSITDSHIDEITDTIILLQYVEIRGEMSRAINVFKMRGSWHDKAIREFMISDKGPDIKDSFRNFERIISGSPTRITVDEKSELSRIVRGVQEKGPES

KaiC-DA (mimic of pS/T) = biological target: T2, KaiC-DA (mimic of pS/T) (S. elongatus, UniProt Q79PF4 1-519, KaiC-DA (S431 to D) | KaiC-DA (T432 to A)); assay: as above; settings: both partners purified
T2 construct: KaiC of Synechococcus elongatus with the two phosphorylation sites S431 and T432 changed to D and A; the two substitutions are read from these; source: E. coli BL21 or DH5α, pGEX-based construct, purified (glutathione-agarose, HRV3C cleavage on the column, Q Sepharose); not shown: GST, N-terminal, cleaved
T2 sequence: T1 sequence with E432A

KaiC-AE (mimic of S/pT) [4] = biological target: T3, KaiC-AE (mimic of S/pT) (S. elongatus, UniProt Q79PF4 1-519, KaiC-AE (S431 to A) | KaiC-AE (T432 to E)); assay: as above; settings: both partners purified
T3 construct: KaiC of Synechococcus elongatus with the two phosphorylation sites S431 and T432 changed to A and E; the two substitutions are read from these; source: E. coli BL21 or DH5α, pGEX-based construct, purified (glutathione-agarose, HRV3C cleavage on the column, Q Sepharose); not shown: GST, N-terminal, cleaved
T3 sequence: T1 sequence with D431A

KaiC-DE (mimic of pS/pT) [5] = biological target: T1, KaiC-DE (mimic of pS/pT); assay: high-speed atomic force microscopy (HS-AFM); as Fig. 3 but with 1 mM ATP in the observation buffer (Supplementary Fig. 4); KaiC phospho-mimics on AP-mica, KaiA in solution; settings: both partners purified
KaiC-AA (mimic of S/T) = biological target: T4, KaiC-AA (mimic of S/T) (S. elongatus, UniProt Q79PF4 1-519, KaiC-AA (S431 to A) | KaiC-AA (T432 to A)); assay: as above; settings: both partners purified
T4 construct: KaiC of Synechococcus elongatus with the two phosphorylation sites S431 and T432 changed to A and A; the two substitutions are read from these; source: E. coli BL21 or DH5α, pGEX-based construct, purified (glutathione-agarose, HRV3C cleavage on the column, Q Sepharose); not shown: GST, N-terminal, cleaved
T4 sequence: T1 sequence with D431A, E432A

KaiC-AE (mimic of S/pT) [6] = biological target: T3, KaiC-AE (mimic of S/pT); assay: as above; settings: both partners purified
[7] = biological target: the molecule itself; assay: high-speed atomic force microscopy (HS-AFM); KaiC^WT alone immobilised on bare mica (N-terminal side seen), images compared with an AFM image simulated from the crystal structure
[8] = reference: KaiC-AA (S431A/T432A), sites S431,T432
[9] = reference: KaiC-AE (S431A/T432E), sites S431
[10] = reference: KaiC-AA (S431A/T432A), sites S431
[11] = reference: KaiC-AA (S431A/T432A), sites T432

## KaiC (from UniProt Q79PF4) hyperphosphorylated KaiCWT (~81% phosphorylated)
KaiA [1]; reference: hypo-phosphorylated KaiCWT (~27% phosphorylated), sites S431,T432
  other: bound-state lifetime τbound: weaker; reference 1.12 ± 0.03

## KaiC (from UniProt Q79PF4) KaiC-DE (S431D/T432E)
KaiA [1]; [8]
  other: bound-state lifetime τbound: 0.26 s
KaiA [1]; [9]
  other: bound-state lifetime τbound: weaker; reference 1.00 ± 0.15
KaiA [2]; [8]
  other: bound-state lifetime τbound: 0.31 s
KaiA [2]; [9]
  other: bound-state lifetime τbound: weaker; reference 0.95 ± 0.04
KaiA [2]; reference: KaiC-DA (S431D/T432A), sites T432
  other: bound-state lifetime τbound: weaker; reference 0.43 ± 0.01

## KaiC (from UniProt Q79PF4) KaiCWT from peak phosphorylation phase (24 h)
KaiA [1]; reference: KaiCWT from trough phosphorylation phase (15 h), sites S431,T432
  other: bound-state lifetime τbound: weaker; reference 0.77 ± 0.05

## KaiC (from UniProt Q79PF4) KaiC-DA (S431D/T432A)
KaiA [1]; [10]
  other: bound-state lifetime τbound: 0.43 s
KaiA [2]; [10]
  other: bound-state lifetime τbound: 0.43 s

## KaiC (from UniProt Q79PF4) KaiC-AE (S431A/T432E)
KaiA [1]; [11]
  other: bound-state lifetime τbound: 1 s
KaiA [2]; [11]
  other: bound-state lifetime τbound: 0.95 s

B1: KaiA (natural protein, S. elongatus, UniProt Q79PF6 1-284, looked up)
chain: MLSQIAICIWVESTAILQDCQRALSADRYQLQVCESGEMLLEYAQTHRDQIDCLILVAANPSFRAVVQQLCFEGVVVPAIVVGDRDSEDPDEPAKEQLYHSAELHLGIHQLEQLPYQVDAALAEFLRLAPVETMADHIMLMGANHDPELSSQQRDLAQRLQERLGYLGVYYKRDPDRFLRNLPAYESQKLHQAMQTSYREIVLSYFSPNSNLNQSIDNFVNMAFFADVPVTKVVEIHMELMDEFAKKLRVEGRSEDILLDYRLTLIDVIAHLCEMYRRSIPRET
notes: circadian clock protein KaiA of Synechococcus elongatus, native (unmutated); also called native KaiA; KaiA dimer; source: E. coli BL21 or DH5α, pGEX-based construct, purified (glutathione-agarose, HRV3C cleavage on the column, Q Sepharose); not shown: GST, N-terminal, cleaved
KaiC-DE (mimic of pS/pT) [3]
  τ_(bound) (dwell time of the bound state): 0.26 s
KaiC-DA (mimic of pS/T)
  τ_(bound) (dwell time of the bound state): 0.43 s
KaiC-AE (mimic of S/pT) [4]
  τ_(bound) (dwell time of the bound state): 1 s
KaiC-DE (mimic of pS/pT) [5]
  τ_(bound) (dwell time of the bound state): 0.31 s
KaiC-AA (mimic of S/T)
  binding result: binds
KaiC-AE (mimic of S/pT) [6]
  τ_(bound) (dwell time of the bound state): 0.95 s

B2: native wild-type KaiC hexamer (KaiC^WT) (natural protein, S. elongatus)
chain: T1 sequence with D431S, E432T
notes: circadian clock protein KaiC of Synechococcus elongatus, native (unmutated); also called native KaiC; C6; source: E. coli BL21 or DH5α, pGEX-based construct, purified (glutathione-agarose, HRV3C cleavage on the column, Q Sepharose; 5 mM MgCl2 and 1 mM ATP throughout); not shown: GST, N-terminal, cleaved
[7]
  stoichiometry N: 6
